In test [1] the target is T1, NLpoly 11S (12-A51T).
T1 construct: E. coli clarified lysate; also called 12S-51
T1 chain: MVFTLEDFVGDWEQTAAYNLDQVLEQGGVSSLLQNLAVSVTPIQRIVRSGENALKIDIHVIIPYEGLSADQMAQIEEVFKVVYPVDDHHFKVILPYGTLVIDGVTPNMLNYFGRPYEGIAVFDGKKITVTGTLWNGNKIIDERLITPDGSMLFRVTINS
In words: luminescence complementation titration; one site-specific binding fit.

Test [2] concerns the target T1, NLpoly 11S (12-A51T). The test can be described thus: luminescence complementation titration of synthetic NLpep on NLpoly E. coli lysate; one site-specific binding fit.

B1: NLpep86 (peptide)
peptide: Ac-VSGWRLFKKIS-NH2
notes: synthetic peptide
As to B1, the “fold improved affinity over NLpolyWT:NLpepWT” value in the test with NLpoly 11S (12-A51T) [1] came out at 10000 fold. Besides, in the test with NLpoly 11S (12-A51T) [2], the equilibrium dissociation constant (Kd) (in general, the equilibrium constant for the complex coming apart) is under 1 nM.

B2: NLpep80 (peptide)
peptide: Ac-VSGWRLFKKISN-NH2
notes: synthetic peptide
As for B2, in the test with NLpoly 11S (12-A51T) [1], the “fold improved affinity over NLpolyWT:NLpepWT” value amounted to 10000 fold. In the test with NLpoly 11S (12-A51T) [2], the Kd is under 1 nM.

The values are drawn from patent US20140348747A1 (PROMEGA, published 2014).
